{"source": "patent US20230250158A1", "binders": {"B1": {"name": "2-A6 (antibody, V domains shown)", "VH": "QVTLRESGPALVKPTQTLTLTCTFSGFSLNTRGMSVSWIRQPPGKALEWLALIDWEDDKFYRTSLMTRLTISKDIFKNQVVLTMTNVDPVDTGTYYCARTYSVGVKYFGMDVWGQGTTVTVSS", "VL": "SSELTQDPAVSVALGQTVRITCQGDSLRNYYASWYRQEPGQAPILLIYGGNYRPSGIPDRFSGSSSGNTASLTITGAQAEDEADYYCNSRDSSGNHVVFGGGTKLTVL"}, "B2": {"name": "22-F7 (antibody, V domains shown)", "VH": "QVQLVESGGGVVQPGRSLRLSCAASGFSFTNYGMHWVRQAPGKGLEWVAVISYDGSIKYYEDSLKGRFTVSRDNSKKTLYLQMNSLRAEDTAVYYCTRERGTGIDYWGLGTLVTVSS", "VL": "QSALTQPASVSGYPGQSITLSCTGTKSDIGAYNYVSWYQQHPGKAPKLMVYDVSNRPSGLSNRFSGSKSDNTASLTISGLQAEDEAHYYCSSYTTSGTVVFGGGTKVTVL"}, "B3": {"name": "22-E7 (antibody, V domains shown)", "VH": "QVQLVESGGGVVQPGTSLRLSCAASGFTFNNYPMFWVRQAPGKGLEWLALISYDGNHKVYADSVKGRFTISRDNAKNTLYLQMHSLRAEDTALYYCASDLSGAEDSWGQGTLVTVSS", "VL": "QSALTQPASVSGSPGQSITISCTGTSSDVGGYNYVSWYQQHPGKAPKLLIYEVSNRPSGVSNRFSGSKSGNTASLTISGLQAEDEADYYCSSYTSSSTWVFGGGTKLTVL"}}, "data": [{"target": "SARS-CoV-2 Spike trimer (recombinant, wild type) (SARS-CoV-2), P0DTC2", "test": "ELISA on plate-adsorbed recombinant Spike", "details": "remark: other sources report otherwise", "units": {"EC50 (read off the curve)": "µg/mL"}, "values": [{"binder": "B1", "EC50 (read off the curve)": 0.007}, {"binder": "B2", "EC50 (read off the curve)": 0.01}, {"binder": "B3", "EC50 (read off the curve)": 0.02}]}]}
